# B1: IL-6: cytokine interleukin-6 (Peprotech), 50 ng/mL (protein, UniProt P08505 25-211, looked up)
# Interleukin-6: FPTSQVRRGDFTEDTTPNRPVYTTSQVGGLITHVLWEIVEMRKELCNGNSDCMNNDDALAENNLKLPEIQRNDGCYQTGYNQEICLLKISSGLLEYHSYLEYMKNNLKDNKKDKARVLQRDTETLIHIFNQEVKDLHKIVLPTPISNALLTDKLESQKEWLRTKTIQFILKSLEEFLKVTLRSTRQT
# What was measured:
# [1] = system: Naïve CD4 T cells; experiment: Intracellular staining (IL-17, IFN-γ, IL-10, Foxp3) of CD4 T cells cultured with DCCM, flow cytometry; assay type: cell-based, C57BL/6J mice; details: IL-6 added to DCCM-apoptotic B-cells or DCCM-apoptotic neutrophils
# Description: (§1) Naïve CD4 T cells were isolated first by sorting with MACS® CD4^+ beads (Miltenyi Biotech, Auburn, Calif.) according to manufacturer's instructions and then by fluorescence activated cell sorting (FACS) using a MoFlo™, Vantage, or Influx™ cell sorter for CD25^−CD44^lowCD62L^high cells using allophycocyanin (APC)-conjugated anti-CD25 monoclonal antibody (mAb) (clone PC61.5), FITC-conjugated CD62L mAb (clone MEL-14), and PE-Cy5-conjugated CD44 mAb (clone IM7) (all from eBioscience™, San Diego, Calif.). Cells were grown in complete IMDM (Gibco, Carlsbad, Calif.) supplemented with 10% FBS, 100 μg/mL penicillin, 100 μg/mL streptomycin, 2 mM L-glutamine, 10 mM HEPES, and 1 nM sodium pyruvate, and activated on 48-well tissue-culture plates which had been coated with 4 μg anti-CD3 (clone 2C11) for 3 h at 37° C., then washed 3 times with PBS. […]
# Because development of Treg cells is reciprocally related to TH17 cells^10 expression of Foxp3, a transcription factor unique to Treg cells^19 was examined. After 3 days of culture with DCCM from the indicated groups, T cells were restimulated with PMA and ionomycin for 4 hours with Brefeldin A before intracellular cytokine staining for IL-17 and IFN-γ was performed, and expression of these cytokines was determined by FACS. […]
# [2] = system: Naïve CD4 T-cells; experiment: qPCR of lineage genes in naïve CD4 T-cells cultured with DCCM; assay type: cell-based, C57BL/6J mice; details: quantitative RT-PCR
# Description: as §1, with “PBS. Cultures were supplemented with 2 μg/mL anti-CD28 (clone 37-51, a kind gift from J. Allison, Sloan-Kettering Cancer Center) and anti-IL-4 ascites (clone 11B11, a kind gift from T. Moran, Mount Sinai School of Medicine, ATCC number HB188) at 1:500. mAbs 2C11 and 37-51 were purified from hybridoma supernatants by BioXCell Company (West Lebanon, N.H.). When cultured with conditioned medium (CM) from BMDC, T cells were grown in 1:1 CM:fresh complete IMDM.” for “PBS.”
# T cells cultured for 48 hours under the indicated conditions were lysed and RNA isolated by TRIzol® extraction (Invitrogen) according to manufacturer's instructions. […] Quantitative real-time, reverse transcription polymerase chain reaction (qPCR) was conducted on an ABI Prism® 7900 instrument (Applied Biosystems, Foster City, Calif.) with primer pairs and probes as follows. […]
# Quantitative PCR was performed using TaqMan® quantitative PCR Master Mix at a concentration of 1× (Applied Biosystems). […] “Fold inductions” were calculated using the ΔΔCt method relative to T cells activated under neutral conditions (No cytokines or CM). […]
molecule,measurement,setting,value
B1,Foxp3 expression,[1],markedly impaired Foxp3 expression
same,IL-17 production,[1],restored IL-17 production
same,Foxp3 mRNA induction,[2],Foxp3 induction was impaired

# Source: US8628762B2, “T-helper cell type 17 lineage-specific adjuvants, compositions and methods” (Icahn School of Medicine at Mount Sinai, priority 2008, dated 2014)
